This is an account of results in the supplement of paper PMC9170038.

The subject of this data set is MS2 coat protein. Kind of data set: apparent KD of MS2 coat protein; higher = weaker reporter binding. Conditions: Eterna round: R107. How it is done: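 RNA-MaP round R107: designed RNA switches with theophylline, tryptophan, arginine or FMN aptamers are transcribed on-chip within common flanks. They are titrated with SNAP-549-labelled MS2 coat protein in RNA-MaP buffer (100 mM Tris pH 7.5, 80 mM KCl, 4 mM MgCl2), without ligand or with the indicated ligand. Median apparent KD per design.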

The mark [1] stands for this setting: input ligand: theophylline 20 uM.
Setting [2] is: input ligand: theophylline 2 mM.
Where [3] appears, read: input ligand: tryptophan 2.4 mM.

With “AAGAACAUGAGGAUCACCCAUGUGAUCGUUCGAGGACCGGUACGGCCGCCACUCGGACCUGUGUCCAGGCACGGGCCGACGCGAC [theeternabot_sameState_MS2_Trp_A_21]”, the “apparent KD of MS2 coat protein” value is, setting by setting: (input ligand: arginine 13.2 mM) 74.8 nM; under setting [1], 118 nM; under setting [2], 106 nM.
For “AAGACAUGAGGAUCACCCAUGUCGUCUACACGAGGACCGGUACGGCCGCCACUCGUUUGCCAAUGAGCGCAUGCGGCCUGGGUAU [Exclusion Tryp A GF3]”, in that order: 13.2 nM, 17.9 nM and 16.3 nM.
Regarding “AAGACUGGACAUAAGUCCAGUCAACCUGAAGGAGCGGGUGGGUGCCCAGGUAGGUCGCGGGAACAUGAGGAUCACCCAUGUAUAA [ArgAS 5 #BothOrNeither #OpenEnded]”, the “apparent KD of MS2 coat protein” value (input ligand: arginine 13.2 mM) worked out at 17.4 nM; the “apparent KD of MS2 coat protein” value (input ligand: none) turned out to be 25.8 nM; the “apparent KD of MS2 coat protein” value under setting [1] was found to be 16.9 nM; the “apparent KD of MS2 coat protein” value under setting [2] is 31.9 nM; the “apparent KD of MS2 coat protein” value under setting [3] was determined as 24.6 nM.
Take “AAGGUAUCACAGACAUGGGUGUACUGUGAUACCAGCUAGGAAACUAGCCCUUGGCAGCACAUGAGGAUCACCCAUGUAAGAAUAA [(T)'-(M)'-(T1)-(T2)-(M1)-(M2)_Design4_2/19/17]”: the “apparent KD of MS2 coat protein” value reads like this: (input ligand: arginine 13.2 mM) 34 nM; under setting [1], 94.9 nM; under setting [3], 53.8 nM.
In the case of “AAGGUGAUCCGUGAUACCAGCUCAACAUGAGGAUCACCCAUGUAAGCCUGGAAACAGGCGAGCCCUUGGCAGCACGGUUGCCAAG [(M)'-(Theo1)-(Ms2)-(Theo2)-(M'')-(T2)'_Design1]”, the “apparent KD of MS2 coat protein” value runs as follows: (input ligand: arginine 13.2 mM) 38.6 nM; (input ligand: none) 165 nM; under setting [1], 138 nM; under setting [2], 25.4 nM; under setting [3], 163 nM.
For “AAGUGGCACGGAAGGAGCGAGUUUACCUAGAUAACAUGAGGAUCACCCAUGUAUAAUGGGACUCAGGUAGGUCGCCGCUGUCACU [#30 Same State - Arginine B]”, in that order: 34.9 nM, 41.5 nM, 58.3 nM, 38.6 nM and 41.5 nM.
Turning to “AAUAACAUGAGGAUCACCCAUGUAAAAGAUACCAGAGUGAUGAUCCUCCCUUGGCAGCUUAAAACGCUAUUGAUUACAAUAGCGA [Mat - Same State Theophlline A - Mod of Eli - D4]”, the “apparent KD of MS2 coat protein” value is 38.3 nM (input ligand: arginine 13.2 mM), 99 nM under setting [1] and 45.3 nM under setting [3].
For the sequence “AAUAAGCAGCUGCAAGGUGAUCCUGCAGAUACCAGCUAGGAAACUAGCCCUUGGCAGCUGCAACAUGAGGAUCACCCAUGUAAUA [(T)'-(M)'-(T1)-(T2)-(M1)-(M2)_Design6]”, the “apparent KD of MS2 coat protein” value was 26.2 nM (input ligand: arginine 13.2 mM), 61.7 nM under setting [1] and 30.7 nM under setting [3].
Take “AAUAAGUAUCUGCUAGGUGAUCCAGCAGAUACCAGCUAGGAAACUAGCCCUUGGCAGCUGCAACAUGAGGAUCACCCAUGUAAUA [(T)'-(M)'-(T1)-(T2)-(M1)-(M2)_Design3]”: the “apparent KD of MS2 coat protein” value (input ligand: arginine 13.2 mM) was 98.7 nM, the “apparent KD of MS2 coat protein” value under setting [1] was 193 nM and the “apparent KD of MS2 coat protein” value under setting [3] stood at 407 nM.
Consider “AAUAAUAAGGCGGCCGCCACUAAACAUGAGGAUCACCCAUGUCUCGCGGGCUUGCGUUGGGAAAGUAGGACCGGGCCAAUAAUAA [Exclusion - Tryptophan B (Freestyle 8)]”, for which the “apparent KD of MS2 coat protein” value reads like this: (input ligand: arginine 13.2 mM) 16 nM; (input ligand: none) 15.7 nM; under setting [1], 20.6 nM; under setting [2], 14.7 nM; under setting [3], 14.4 nM.
For “AAUAAUAAGGCGGCCGCCACUACACAUGAGGAUCACCCAUGUCUCGCGGGCUUGCGUUGGGAAAGUAGGACCGGGCCAAUAAUAA [Exclusion - Tryptophan B (Freestyle 9)]”, in that order: 15.3 nM, 21.5 nM, 26 nM, 27.3 nM and 15.7 nM.
In the case of “AAUACAGCUACGGCCGCCACUUUAACUUGGUAUGGGUCCUUCACAAACAUGAGGAUCACCCAUGUAAGGACCGGGUAGCCUUGUU [theeternabot_exclusion_MS2_Trp_B_35]”, the “apparent KD of MS2 coat protein” value (input ligand: arginine 13.2 mM) was 21.6 nM, the “apparent KD of MS2 coat protein” value under setting [1] was 28.4 nM and the “apparent KD of MS2 coat protein” value under setting [2] came out at 24 nM.
For the sequence “AAUACCGGUCCUCGAAGCAUGGGUGAUCAACGAGGACCGGUACGGCCGCCACUCGAUAACAUGAGGAUCACCCAUGUAAUAAUAA [|T'-M'-Trp-Ms2|_Design5]”, the “apparent KD of MS2 coat protein” value (input ligand: arginine 13.2 mM) amounted to 34.4 nM; the “apparent KD of MS2 coat protein” value (input ligand: none) is 313 nM; the “apparent KD of MS2 coat protein” value under setting [1] was determined as 395 nM; the “apparent KD of MS2 coat protein” value under setting [2] worked out at 552 nM; the “apparent KD of MS2 coat protein” value under setting [3] came to 569 nM.
Regarding “AAUACCGGUCCUCGAGGGUGAUCCUCAUGACGAGGACCGGUACGGCCGCCACUCGAUAACAUGAGGAUCACCCAUGUAAUCGAGU [|T'-M'-Trp-Ms2|_Design7b]”, the “apparent KD of MS2 coat protein” value runs as follows: (input ligand: arginine 13.2 mM) 34.1 nM; under setting [1], 70.4 nM; under setting [2], 72.4 nM.
The corresponding values for “AAUGGGCGAGUAGAGCAUAAUUUCCACUCCCGAGGACCGGUACGGCCGCCACUCGUUCGCUCACAUGAGGAUCACCCAUGUGGUC [theeternabot_exclusion_MS2_Trp_A_17]” are 24.7 nM, 32.3 nM and 40.3 nM.
For “AAUGGUCGUACUGGAAUGGUGAUCCUCAAACGAGGACCGGUACGGCCGCCACUCGAUAACAUGAGGAUCACCCAUGUAAUAAUAA [|T'-M'-Trp-Ms2|_Design13b]”, in that order: 26 nM, 67.4 nM and 55.2 nM.
The corresponding values for “AAUGUAUGCCACAUGAGGAUCACCCAUGUGCGAGGACCGGUACGGCCGCCACUCGGUCGGUGGUUAAUGAAGAUAUACAAUAAUG [XTryp A #12]” are 10.6 nM, 20.9 nM and 13.5 nM.
In the case of “AAUGUAUGGCACAUGAGGAUCACCCAUGUGCGAGGACCGGUACGGCCGCCACUCGGUCCUGGGAUCUUAAUACUAUACAUUAAUG [XTryp A #19]”, the “apparent KD of MS2 coat protein” value runs as follows: (input ligand: arginine 13.2 mM) 10.3 nM; under setting [1], 15.1 nM; under setting [2], 13.9 nM.
As to “AAUGUGAAGGCGGCCGCCACUGAUAAUAGACAUGAGGAUCACCCAUGUAUAAAUCCUCAAUAAGACAGGACCGGGCCAACUACGU [Exclusion Tryptophan B GF 1]”, the “apparent KD of MS2 coat protein” value worked out at 93 nM (input ligand: arginine 13.2 mM), 114 nM under setting [1] and 136 nM under setting [2].
